Measurements taken from patent US10766940 (GOVERNORS OF THE UNIVERSITY OF ALBERTA, dated 2020).
Positions of bridges follow the written chain, without caps; N, C: chain ends. No end group written: not given here.

Legend:
[1] = target: T1, AMY3 receptor (heterodimeric complex of the calcitonin receptor and RAMP3) (UniProt P30988 25-474; O60896 24-148); assay: cell-based or functional assay
T1 sequence (looked up) 1: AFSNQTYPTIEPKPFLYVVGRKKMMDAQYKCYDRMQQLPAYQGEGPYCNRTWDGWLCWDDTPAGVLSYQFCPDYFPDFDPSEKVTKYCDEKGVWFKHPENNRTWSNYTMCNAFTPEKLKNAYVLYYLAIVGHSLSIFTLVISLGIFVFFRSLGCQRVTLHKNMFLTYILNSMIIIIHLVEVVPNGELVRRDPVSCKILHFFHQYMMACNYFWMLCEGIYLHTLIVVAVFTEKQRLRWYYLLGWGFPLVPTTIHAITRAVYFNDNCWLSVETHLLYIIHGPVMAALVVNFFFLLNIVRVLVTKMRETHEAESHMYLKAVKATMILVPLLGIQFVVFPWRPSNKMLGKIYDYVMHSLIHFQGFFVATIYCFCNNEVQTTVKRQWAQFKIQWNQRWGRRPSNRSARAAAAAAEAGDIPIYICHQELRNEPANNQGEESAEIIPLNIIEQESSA
T1 sequence (looked up) 2: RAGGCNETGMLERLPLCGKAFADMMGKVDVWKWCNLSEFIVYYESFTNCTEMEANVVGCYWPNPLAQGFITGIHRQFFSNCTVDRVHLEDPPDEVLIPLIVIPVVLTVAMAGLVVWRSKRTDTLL

[2] = target: T1, AMY3 receptor (heterodimeric complex of …); assay: flow cytometry, Cy5.5-labelled peptide 5 µM; wild type HEK293 against AMY3-HEK cells
[3] = target: T2, AMY1 receptor (heterodimeric complex of the calcitonin receptor and RAMP1) (UniProt P30988 25-474; O60894 27-148); assay: flow cytometry cell uptake, AMY1 transfected cells; reference other fragments
T2 construct: whole, on cells; also called amylin receptor subtype 1

[4] = target: T1, AMY3 receptor (heterodimeric complex of …); assay: flow cytometry, Cy5-labelled peptide 5 µM, AMY3-HEK cells; reference AC253
Procedure: (§1) d) For flow cytometry studies, AMY3-293 cells were used to determine cell binding and uptake and binding of Cy5-AC253, and Cy5-cAC253 peptides. Cell were plated at a density of 1.5 ×10^5 cells/well and cultured overnight in 12-well plates at 37° C. Cy5 labelled peptides (5 μM) were added and incubated for 1 hour at 37° C. in serum free media. The culture media was discarded, and cell monolayers were washed with PBS containing 2 mM EDTA and 0.5% BSA adjusted to pH 7.4 at 37° C. Cells were washed again with cold buffer and incubated with 0.25% trypsin to remove cell surface-associated fluorophores. Cells were dispersed in FACS solution (10% FBS in PBS) and analyzed using a FACSCanto II flow cytometer (BD Biosciences, USA) selecting a detection window between 720 and 840 nm. Fluorescence histograms and dot plots were generated using the data were processed with FLOWJO software (Tree Star, Inc, USA). At least 10,000 gated events per sample were analyzed. The experiment was repeated with different peptide concentration ranging from 0.5-10 μM, and mean fluorescence intensity of peptides was extrapolated. To further study the cell uptake mechanism, cells were preincubated with cytochalasin D (cytoD, […]) for 30 minutes, and the experiment was repeated as above. […]

[5] = target: T1, AMY3 receptor (heterodimeric complex of …); assay: flow cytometry, dose-dependent binding of Cy5-labelled peptide (0.5-10 µM) to AMY3-HEK cells
Procedure: as §1

[6] = target: amylin receptor in mouse brain (mouse, UniProt Q60755 42-533); assay: cell-based or functional assay
Sequence of amylin receptor in mouse brain (Q60755 42-533): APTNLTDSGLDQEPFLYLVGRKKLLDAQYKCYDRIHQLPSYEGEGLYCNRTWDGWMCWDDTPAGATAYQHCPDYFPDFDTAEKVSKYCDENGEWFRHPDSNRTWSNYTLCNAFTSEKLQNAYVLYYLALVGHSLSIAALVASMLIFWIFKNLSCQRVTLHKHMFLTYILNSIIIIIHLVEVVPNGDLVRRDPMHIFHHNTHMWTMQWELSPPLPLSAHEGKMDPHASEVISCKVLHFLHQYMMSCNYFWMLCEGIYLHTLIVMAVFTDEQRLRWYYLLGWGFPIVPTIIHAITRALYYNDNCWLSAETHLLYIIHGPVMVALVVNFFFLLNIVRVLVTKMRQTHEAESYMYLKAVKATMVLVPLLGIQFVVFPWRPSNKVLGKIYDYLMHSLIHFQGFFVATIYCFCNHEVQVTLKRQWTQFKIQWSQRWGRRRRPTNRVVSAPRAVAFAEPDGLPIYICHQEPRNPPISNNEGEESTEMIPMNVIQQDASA

T2 sequence (O60894 27-148, one chain of several): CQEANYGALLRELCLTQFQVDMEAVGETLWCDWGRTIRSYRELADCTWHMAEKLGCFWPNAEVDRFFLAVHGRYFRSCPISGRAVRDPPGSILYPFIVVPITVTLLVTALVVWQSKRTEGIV

B1: AC253 (peptide)
peptide: Ac-LGRLSQELHRLQTYPRTNTGSNTY-NH2
modifications: not fully specified; printed as Ac-LGRLSQELHRLQTYPRTNTGSNTY; also: labelled form for binding: Cy5/Cy5.5 on extra N-terminal beta-alanine spacer
notes: Synthetic 24-residue peptide; cAMP assay used the unlabelled peptide; also called linear AC253; Cy5-AC253
IC50 for inhibition of hAmylin evoked cAMP increase in AMY3-HEK cells [1]: ~850 nM | fold decrease in binding and uptake in wild type HEK293 cells compared to AMY3-HEK cells [2]: 10 fold

RLQTYPRTNTGS (not fully specified (N-terminus, C-terminus), 12-residue fragment of AC253) [peptide fragment R10 of AC253]
fold increase in specific binding compared to other fragments [3]: 3 fold

B2: cyclized AC253 (peptide)
peptide: CLGRLSQELHRLQTYPRTNTGSNTYC-NH2
modifications: disulfide 1-26; also: flanking Cys said to be D-Cys in one passage
notes: AC253 with one cysteine added at each terminus, cyclized by a disulfide; cAMP assay used the unlabelled peptide; also called cAC253; cyclic AC253
fold binding and uptake compared to AC253 [4]: 3 fold | Kd [5]: 1450 nM | reduction in brain fluorescence after ip injection of Cy5-cAC253 mixed with 5-fold excess of unlabeled cAC253 (in vivo competition, ex vivo NIRF imaging) [6]: 75% | IC50 for inhibition of hAmylin evoked cAMP increase in AMY3-HEK cells [1]: ~300 nM | fold potency versus AC253 in inhibiting AMY3 receptor activity (cAMP) [1]: 3 fold | fold decrease in binding and uptake in wild type HEK293 cells compared to AMY3-HEK cells [2]: 10 fold
